Laboratory results: article PMC5136324 (Molecular cancer therapeutics, 2016)
Ends that are not written are not given here. * marks the point of attachment. FITC = O=C1OC2(c3ccc(O)cc3Oc3cc(O)ccc32)c2ccc(NC(=S)*)cc21

Biological target: AR ligand binding domain (residues 670-920), biotinylated, N-terminal (His)6-avidin tag (human, UniProt P10275 670-920, biotin (biotinylated form))
Assay: FRET or BRET

binding result: binds
Binder: {FITC}-MPQDLRSPARTPPSEEDSAEA [FITC-labelled SGTA peptide (FITC-MPQDLRSPARTPPSEEDSAEA)]
